Assay: label from the status in PepcDB records

## MRPGSVKRLYGVNTVQYAPCFMRDHRRDGIPHGNLPLELDAFVGRGAQLAELARTLDSARLVTLTGSGGVGKSRLAARAAARRAPRGGVWRVQLAPVRDEEFVDYAVVEALGLTDHTTRLPRETLLAHLAERELLLLLDGVEHLVDACAALVTELLGRAPGLTVLAVGRRPLGVAGERLVPLAPLGTEEAVELLTVRAGQRSVARDHDADPDADQREMRELCRRLDGIPLAIELAAGRLDALSPGQMLRRLDDRFRLLTGGDRTALPRHRTLRTAIGWSHELCTPPERLLWARLSVFAGPFDLEAAEYVCSGDGMPADDVLDVLCALLSQSVLTREESPAGVRYRMLDTVRAYGADWLAATGDADRLRRRHRDWYVGLATWCELEWFSPRQGEVAARVDAELPNLRSALEHCLDEPDGAHLGQYLAGALWFHWVGCGRLSEGRHWLEQAVRLDAEPTAGEQSRLKALWVLAYVAILQGDTVPALAALQECREEAERSANPTAAAYAEHRTGCLALVTDDLPRAETLLRSALHRYREIGELNSNVLMGQVELAMARAFQGDLPDAVRLCEDVRQVCEDHGERWARGYALYVLAYAAWSDGEPVRARELLADCLGSAHRFRDQLGSVLAVELLALVTVAEGDAAEAAVLQGAAGRMWPSVGLPLFGSAHYNAPHELCEAAAREQLGDERYEECVRHGARLGRREAVARALRRPGARASLPAPRPTAVRRAPAGARTAKPAASPTRKGGETAG
  protein production: failed

## MKVIILGSGSYSGTPKPLCTCENCTRARINPAFRRTRFSVYIEGGILIDPGPDLHYHLEKLNKEVETILITHAHFDHIFGLPDAQVFKKLTIASNPLGIKVARSLAMLAFNSEAPLGNDWDYVELKFWNEYKVNGVKVIHFPVVHSIEMAGGFLIERKNKTVAITGDTGPEIIRDSEVIDLIKGSDLLISEMTHKESIPKTHLGVNDAIELAKIVKAEQTVFAHISHSNYPQEILEKKVREAKISGIVARDFTIIEI
  protein production: failed

## MKKLDASTAVSLTGMPELERIVESLCTPESYEAVYHQSLHGSPMPSLEALTELMARLRAALFPGYFGASNIVLESMRYHLAANLDSIYRILAEQVRRGGCFACADYATDCQNCESHSQETAMEFMRALPRIRQLLATDVKAAYEGDPAAKSPGETIFCYPSIYAMIHHRIAHELYRLDVPVIPRIISEMAHSRTGIDIHPGATVGEEFFIDHGTGVVIGETCIIGRGCRLYQGVTLGALSFPKDGGGALIKGIPRHPILQDGVTVYAGATILGRVTIGAGAIVGGNVWVTHDVAPGAKVVQQKSSPPAAEDRMVGTKNGTPKA
  protein production: failed

## MGSSHHHHHHSSGRENLYFQGMAATAREDGASGQERGQRGCEHYDRGCLLKAPCCDKLYTCRLCHDNNEDHQLDRFKVKEVQCINCEKIQHAQQTCEECSTLFGEYYCDICHLFDKDKKQYHCENCGICRIGPKEDFFHCLKCNLCLAMNLQGRHKCIENVSRQNCPICLEDIHTSRVVAHVLPCGHLLHRTCYEEMLKEGYRCPLCMHSALDMTRYWRQLDDEVAQTPMPSEYQNMTVDILCNDCNGRSTVQFHILGMKCKICESYNTAQAGGRRISLDQQ
  protein production: failed

## MTQRSLADIQFQTTLEGVTPAQLGGFFEGWPNPPTPETLWRILDRAAVFVLARTPDGQVIGFVNALSDGILAASIPLLEVQAGWRSLGLGSELMRRVLTELGDLYMVDLSCDDDVVPFYERLGLKRANAMFLRRYDNQAGIPAE
  protein production: not failed

## MASRLGKKRLFLVWSCLVSILPGMAQTEKLIDYVNPFVGTDGYGNVYPGAQIPFGGIQMSPDTDSKYYDAASGYKYNHSTLLGFSLTHLSGTGIPDLGDFLFIPGTGEMKLDPGTREEPEKGYRSRYSHEKEWASPNYYAVELSDYGVKAEMTSGVRSGMFRFTYPQSDKAFIMIDMNHTLWQSCEWANLRMENDSTITGYKLVKGWGPERHIYFTATFSKKLTGLRFMQNKKPVIYNTSRFRSSYEAWGKNLMACISFDTKAGEEVIVKTAISSVSTNGAKNNMAELAGLAFDELKAKGEALWEKELGKYTLTADRKTKRTFYTSAYHAALHPFIFQDVDGQFRGLDKNIEKAEGFTNYTVFSLWDTYRALHPWFNLVQQEVNADIANSMLAHYDKSVEKMLPVWSFYGNETWCMIGYHAVSVLADMIVKGVKGFDYERAYEAMKTTAMNPNYDCLPEYRMMGYVPFDKEAESVSKTLEYAYDDYCMAQAAKALGKEDDYRYFLNRALSYQTLIDPETKYMRGKDSQGNWRTPFTPVAYQGPGSVNGWGDITEGFTVQYTWYVPQDVQGYINEAGENWFRNRLDELFTVELPDDIPGAHDIQGRIGAYWHGNEPCHHVAYLYNYLKEPWKCQKWVRTIADRFYGDTPDALSGNDDCGQMSAWYMFNCIGFYPVAPSSNMYNIGSPCVEAITVRMSNGKVIEMVADNWSPKNVYVKELYVNGKKYDKSYLKYEDIRDGVKLRFVMSSKPNYKRAVSDEAVAPSLSLPGKTMKYQANFSEKKKSGNPVFKGWYADPEGVVFGDEYWIYPTYSAPYDEQTFMDAFSSKDLVNWTKHPKVISKENISWLRRALWAPAVLSANDKYYLFFGANDIQNNNEVGGIGVATSDSPAGPFKDALGKPLIDKIVHGAQPIDQFVFKDDDGQYYMYYGGWGHCNMVKMAPDLLSIVPFEDGTMYKEVTPENYVEGPFMLKRNGKYYFMWSEGGWGLPNYSVAYSISDSPFGPFKRVGKILEQDLSVATGAGHHSVIKGAGEDEWYIVYHRRPLGETAANSRATCIDRMYFDENGYIKPVKMTFEGVLPSPLDSTK
  protein production: failed

## MSVSVRSYLSPTLVLLAFDWPDAQRRDDFLGFAIKRTPGFWSADGKTRAATSWLPNRLTFDGPAAHTQGDAPTDQAPIQKFMWWDARIDPPDRGRAFRYDVYPVVGTPASLRVLEADAGGCTVTLPAHVEGGVGTWFNRAVVSSQAFAKQVRALRLADGAAPSPDAARRLRTWLANDLEETFGLMLGADARRAVSAVYHLTDPLWAIPAFDAFGRAHGADALAIVYDAHETKRGSGEPPLPSPNQAAVEQLTGVATLAPRDKTRIMHDKFIVAGDEAGPARVLTGSANFTTEGITEQANVLHTFESAALAGLYNACARALASNPCVAETARLAPGWSEPVEVGTARVRVSFSPEPRGARTQIDTIVDAIRGARHSVVFCLFMPTDAALRDACFAAGDRGLMMFGLVNAISARGAQQADADRRDGKTLDAARLANLELYHRSRSNRDVIDAAYFSPATVPAGFEAELRLFPGEAPPPYPPVVVHHKFIVIDAEGANPIVYSGSANMSANSEHYNDENLLEIRDARVAGIYLAEFLRLYEHYRARALAIASRRGNGSGAGGAAGPHGGLALQPDSRWAKKYFVDASPEEKARIALAAPVAAR
  protein production: failed

## MPKLLIPAIIFITLALIFYTIGVWSEHRAGILKKKHVIIFWCGLVCDTLGTYTMSRIVAAGTDKGITPTDLLIHQSTGMLAIILMLIHAVWATIVLNRGSEKAKAIFHKFSLVVWFIWLIPYFVGMYIGMTS
  protein production: failed

## GNPKLKDLYIRPNIVTKRMTGSLEAHSNGFRYISVRGDKVDILYNNIKSAFFQPCDGEMIILLHFHLKYAIMFGKKKHVDVQFYTEVGEITTDLG
  protein production: failed

## MAAKKPLFEVIASKIKDSINRDEYKTGMLMPNETALQEIYSSSRTTIRRAVDLLVEEGLVVRKNGVGLYVQPKLTAQNILEMTGVMKNDTNENLKKDIKDFYIRKAGKFYAEIFGMKENELVYSIKFVQKSEHGATLDRLILPLGLYPDLQAKDFQIINIIELVNSGKYKLFELEQELQLILAGNEQIKNMHLNENDPVFKLSSVFYAENDMPIAIQYHYEDAESTKYVVDFN
  protein production: not failed

## MSASLPRTSATALSSTSPLSARDAAPPKRPRFLRGGVAFSLSPNRDNGLVTFRLDTIGTGLVFADSLSNLTAALATQGGGGAAVVQAPPGTGKTTLVPPLLANLVSEQSPGRPRVVVTQPRRVAARSAARRLASLDGSQLGRRVGYTVRGESKVSQDTVVEFVTPGILLRRLLADPGLEDVSAVVLDEVHERGLETDLLVGMLAEVRELRGDITVVAMSATLDAARFATLLGTGLDGGDPAPVVDCPSALYPLKVQWVPAREHRLDARGVSRLFLDHVAHTAATTHAAALAPDADVDALVFLPGAREVSDVATRLRGLVSGNVEVLELHGQIGPEAQDRAVSGREPGGLPRIIVSTSLAESSLTVPGVRVVIDSGLSREPRRDAGRGMSGLVTVSCSRASADQRAGRAARQGPGTVVRCYDQQAYAAAPAHQTPEISVADLTSAALVLACWGAPGGVDLKLPDAPPAAAMNDAVEVLRELGAVTAEGTVTAVGKTLARIPADPRLARALLDGSAVAGRRAAAETVALVAGGQRAPGADLNKLLSALRSGSDPGARRFAEDVQRMETLVRKEAAAVVRPKAAADVTAGEATGLVVALAFPDRVARRVPGDGSTTYLLSSGTRAGLPSGSSLSGHDWLAVAEVSRAQGRDAAGTGAVIRSAATLSAELAEAAAPDLLTEKVEAKFDQGRVMARLERRLGAIVLSSTPVRPTAESGRRAVSEALEKTGLSMIGWSPAADALRRRLALLHRELGSPWPDVREAALLSRLEDWLGPELEAVATGAAVSSINLVDPLRRLLPWPDAARLEDLVPERLEVPSGSRVRIDYPEVSDRSSGDHDDGRPVVAVKLQECFGWDSTPRLLAGRVPVLFHLLSPAGRPLAVTDDLASFWSGPYSQVRAEMRGRYPRHPWPEDPWTAQATAKTKNRM
  protein production: failed

## DKCKKVYENYPVSKCQLANQCNYDCKLDKHARSGECFYDEKRNLQCICDYCEY
  protein production: not failed

## EREEEPAVQGNPDESLTVEGALEYVELAPQLNLPQQEEDADFHTVAGLIMEELQTIPDVGDFADFHGWRFEVVEKEGQRIERVKITKLP
  protein production: not failed

## MRWNCSACWASSASANAGRRRHFDTSLWRASCSGYGARARQIQAAWIRADTPESTRVPATRRIRLLNPVVPVRSLSACRHLTRSRPPLRSFTMPHVVARSGDVMSSAAPPSCTSLLGLSLSMFVAPCTLTAAPLDTPVVNAPAPTPPTPDQAYPELFQAVQSGELFDDQKHFVDFLPLRDPALINADYLAQHDHPGFDLRKFVDANFEESPPVQTDAIRQDTALREHIDLLWPKLVRSQNHVPPYSSLLSLPHPYVVPGGRFREVYYWDSYFTMLGLVKSGQTTLSRQMLDNFAYLIDTYGHIPNGNRSYYLSRSQPPFFSYMVELQAGVEGQAVYQRYLPQLQKEYAYWMQGSDDVQPGQAARHVVRLADGSVLNRYWDERDTPRPEAWLHDTRTAAEVKDRPAAEVYRDLRAGAESGWDYTSRWLADGQNLRTIRTTAIIPIDLNSLLYHLERTLAQACAQPGAACSRDYAALAQQRKQAIDAHLWNKAGYYADYDWQTRTLSDQITAAALYPLFAGLASDDHAKRTASTVRRTLVRPGGLATTAVKTGQQWDEPNGWAPLQWVAVDGLRRYGEQALARTIGERFLAQVQALFAREHKLVEKYGLETNAAGGGGGEYALQDGFGWTNGVTLMLLNLYPGKGAKAAPAKRVRKTEAAAR
  protein production: failed

## MTFFTNYTNLALIAILLVSGGLLAWPALRRGRGGLSAAEATQLINRRNAVVIDLRAATDFAAGHLPSARQVAAGEIGAKIAQVAKNKSTPVLLVCQNGQQSQKAAREVQAAGYAEVHVLEGGVAAWQQAGMPVVKQGVAK
  protein production: failed

## MLTIDTASRTFHCKTWVTGQTQGKAVIARERISFWGGFDPQTGRIVDPYSSLRGRDISDCVLILLSSKGSSGTSGMLSLATRAGHAPAAMIQVEMDPVTVMGCLVNNIPLLQATGFDPFEQIQDGDLVRIDGENGTITLAPGQALEHHHHHH
  protein production: not failed

## MVKNEVLMRVAELLKHRAENLVKHTEFKQWMSPSVREYWDDILNKTQSRPLFGWVKDLHLPANEDTPIPEPIELKPEAQALYDELQTQVGEVIHTGDWLLVDQERINQFGAVTEDMQWIHTNPDRAALESPFKTTIAHGFLTLALLPKLTDSVDEEKTLFPTAKMVVNIGLNSVRFPYPVKAGNRVRAVSTLSKVTPIKKGLEIEREIKVEIEGVRRPGCVVVSVIQLHF
  protein production: failed
